The record followed here is the supplement of paper PMC7125110.

± gives the standard error. This sample holds only a part of the variants without activity.

First the molecules themselves.
B1: glmS ribozyme (parent)
chain: AUAAAAGCGCCAGAACUACAGAAAUGUAGUUGACGAGGAGGAGGUUUAUCGAAUUUUCGGCGGAUGCCUCCAAA

Holding throughout (details): with glucosamine-6-phosphate
The variants in data set [1] derive from B1. Description: self-cleavage kobs at 40 uM GlcN6P; higher = faster cleavage; RNA array. In outline:
(§1)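 Barcoded ribozyme variants were transcribed in situ on sequenced MiSeq chips by E. coli RNA polymerase. At 37 °C, a hybridised Cy3 probe tracked them while glucosamine-6-phosphate (40 μM to 10 mM) in HEPES/KCl/Mg(OAc)2 buffer flowed in and tiles were imaged over ~14 h. Per-tile medians of signals normalised to baseline and to non-cleaving reference variants were fit to one- or two-exponential decays, giving kobs. kcat and KM came from weighted Michaelis–Menten fits across concentrations.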

In data set [2] the parent is B1. Description: self-cleavage kobs at 640 uM GlcN6P; higher = faster cleavage; RNA array. The method, boiled down: as §1
The variants in data set [3] derive from B1. Description: self-cleavage kobs at 2500 uM GlcN6P; higher = faster cleavage; RNA array. The method, boiled down:
as §1

The variants in data set [4] derive from B1. Description: self-cleavage kobs at 10000 uM GlcN6P; higher = faster cleavage; RNA array. The method, boiled down: as §1
Variants of B1 are the subject of data set [5]. Description: self-cleavage kobs at 160 uM GlcN6P; higher = faster cleavage; RNA array. The method, boiled down: as §1

Turning to C10A U45G, in the data set with glucosamine-6-phosphate [1], the “self-cleavage kobs at 40 uM GlcN6P” value is less than 1e-05 s⁻¹. Further, the “self-cleavage kobs at 640 uM GlcN6P” value in the data set with glucosamine-6-phosphate [2] was less than 1e-05 s⁻¹. For the same variant, the “self-cleavage kobs at 2500 uM GlcN6P” value with glucosamine-6-phosphate [3] was less than 1e-05 s⁻¹. Further, in the data set with glucosamine-6-phosphate [4], the “self-cleavage kobs at 10000 uM GlcN6P” value was less than 1e-05 s⁻¹.
With C10G U45G, in the data set with glucosamine-6-phosphate [1], the “self-cleavage kobs at 40 uM GlcN6P” value is less than 1e-05 s⁻¹. Further, the “self-cleavage kobs at 160 uM GlcN6P” value with glucosamine-6-phosphate [5] was less than 1e-05 s⁻¹. For the same variant, in the data set with glucosamine-6-phosphate [2], the “self-cleavage kobs at 640 uM GlcN6P” value is less than 1e-05 s⁻¹. For the same variant, the “self-cleavage kobs at 2500 uM GlcN6P” value in the data set with glucosamine-6-phosphate [3] was less than 1e-05 s⁻¹. In addition, in the data set with glucosamine-6-phosphate [4], the “self-cleavage kobs at 10000 uM GlcN6P” value was less than 1e-05 s⁻¹.
With C8U G43U, the “self-cleavage kobs at 40 uM GlcN6P” value in the data set with glucosamine-6-phosphate [1] is less than 1e-05 s⁻¹. The “self-cleavage kobs at 160 uM GlcN6P” value with glucosamine-6-phosphate [5] was less than 1e-05 s⁻¹. The “self-cleavage kobs at 2500 uM GlcN6P” value with glucosamine-6-phosphate [3] was less than 1e-05 s⁻¹. For the same variant, the “self-cleavage kobs at 10000 uM GlcN6P” value with glucosamine-6-phosphate [4] was less than 1e-05 s⁻¹.
Consider G38U A53G, for which the “self-cleavage kobs at 40 uM GlcN6P” value with glucosamine-6-phosphate [1] is less than 1e-05 s⁻¹. Further, the “self-cleavage kobs at 160 uM GlcN6P” value in the data set with glucosamine-6-phosphate [5] is less than 1e-05 s⁻¹. Further, the “self-cleavage kobs at 640 uM GlcN6P” value in the data set with glucosamine-6-phosphate [2] was less than 1e-05 s⁻¹.
Consider G9U G44U, for which, in the data set with glucosamine-6-phosphate [1], the “self-cleavage kobs at 40 uM GlcN6P” value was less than 1e-05 s⁻¹. In the data set with glucosamine-6-phosphate [2], the “self-cleavage kobs at 640 uM GlcN6P” value was less than 1e-05 s⁻¹. In the data set with glucosamine-6-phosphate [3], the “self-cleavage kobs at 2500 uM GlcN6P” value is less than 1e-05 s⁻¹. Also, the “self-cleavage kobs at 10000 uM GlcN6P” value with glucosamine-6-phosphate [4] was less than 1e-05 s⁻¹.
Regarding A6U G7C, the “self-cleavage kobs at 40 uM GlcN6P” value with glucosamine-6-phosphate [1] is less than 1e-05 s⁻¹. In addition, the “self-cleavage kobs at 640 uM GlcN6P” value with glucosamine-6-phosphate [2] is less than 1e-05 s⁻¹. Further, the “self-cleavage kobs at 2500 uM GlcN6P” value with glucosamine-6-phosphate [3] was less than 1e-05 s⁻¹. In the data set with glucosamine-6-phosphate [4], the “self-cleavage kobs at 10000 uM GlcN6P” value was less than 1e-05 s⁻¹.
As for G29U G63C, the “self-cleavage kobs at 40 uM GlcN6P” value with glucosamine-6-phosphate [1] was less than 1e-05 s⁻¹. The “self-cleavage kobs at 640 uM GlcN6P” value in the data set with glucosamine-6-phosphate [2] is less than 1e-05 s⁻¹. In addition, in the data set with glucosamine-6-phosphate [4], the “self-cleavage kobs at 10000 uM GlcN6P” value was less than 1e-05 s⁻¹.
On to A33U C67G C70U, for which the “self-cleavage kobs at 40 uM GlcN6P” value with glucosamine-6-phosphate [1] is less than 1e-05 s⁻¹.
G9U G32A A53C U55G G63U: the “self-cleavage kobs at 40 uM GlcN6P” value with glucosamine-6-phosphate [1] is less than 1e-05 s⁻¹.
Turning to G29A G38A A39U, in the data set with glucosamine-6-phosphate [1], the “self-cleavage kobs at 40 uM GlcN6P” value is less than 1e-05 s⁻¹. The “self-cleavage kobs at 640 uM GlcN6P” value with glucosamine-6-phosphate [2] was less than 1e-05 s⁻¹. Also, the “self-cleavage kobs at 10000 uM GlcN6P” value with glucosamine-6-phosphate [4] was less than 1e-05 s⁻¹.
For C34G U57G, the “self-cleavage kobs at 40 uM GlcN6P” value with glucosamine-6-phosphate [1] was less than 1e-05 s⁻¹. For the same variant, in the data set with glucosamine-6-phosphate [5], the “self-cleavage kobs at 160 uM GlcN6P” value was less than 1e-05 s⁻¹. Moreover, the “self-cleavage kobs at 640 uM GlcN6P” value with glucosamine-6-phosphate [2] was less than 1e-05 s⁻¹. Further, the “self-cleavage kobs at 10000 uM GlcN6P” value with glucosamine-6-phosphate [4] was less than 1e-05 s⁻¹.
As to A42G U55A, the “self-cleavage kobs at 40 uM GlcN6P” value in the data set with glucosamine-6-phosphate [1] was found to be 0.00136 ± 0.00015 s⁻¹. In addition, in the data set with glucosamine-6-phosphate [5], the “self-cleavage kobs at 160 uM GlcN6P” value was found to be 0.00202 ± 0.00052 s⁻¹. In addition, the “self-cleavage kobs at 640 uM GlcN6P” value with glucosamine-6-phosphate [2] is 0.0283 ± 0.0091 s⁻¹. Moreover, the “self-cleavage kobs at 2500 uM GlcN6P” value in the data set with glucosamine-6-phosphate [3] is 0.0289 ± 0.0077 s⁻¹. The “self-cleavage kobs at 10000 uM GlcN6P” value in the data set with glucosamine-6-phosphate [4] was 0.0423 ± 0.013 s⁻¹.
Take A6U A12U U65G: the “self-cleavage kobs at 40 uM GlcN6P” value with glucosamine-6-phosphate [1] is less than 1e-05 s⁻¹.
Still for that read-out and setting: the same measure for C10A G37U A42U C67G C68G: 7.19e-05 ± 2e-05 s⁻¹; for A12C A36C A48G C61U C70A: less than 1e-05 s⁻¹.
Consider A52C A53U G59A A64C, for which the “self-cleavage kobs at 40 uM GlcN6P” value with glucosamine-6-phosphate [1] was less than 1e-05 s⁻¹. For the same variant, the “self-cleavage kobs at 640 uM GlcN6P” value with glucosamine-6-phosphate [2] is less than 1e-05 s⁻¹.
As for G51C G66U, the “self-cleavage kobs at 40 uM GlcN6P” value with glucosamine-6-phosphate [1] was less than 1e-05 s⁻¹. Moreover, in the data set with glucosamine-6-phosphate [2], the “self-cleavage kobs at 640 uM GlcN6P” value is less than 1e-05 s⁻¹. For the same variant, the “self-cleavage kobs at 2500 uM GlcN6P” value with glucosamine-6-phosphate [3] was less than 1e-05 s⁻¹. The “self-cleavage kobs at 10000 uM GlcN6P” value with glucosamine-6-phosphate [4] is less than 1e-05 s⁻¹.
As for G35A U65A, in the data set with glucosamine-6-phosphate [1], the “self-cleavage kobs at 40 uM GlcN6P” value was less than 1e-05 s⁻¹. For the same variant, the “self-cleavage kobs at 160 uM GlcN6P” value with glucosamine-6-phosphate [5] was less than 1e-05 s⁻¹. In addition, in the data set with glucosamine-6-phosphate [2], the “self-cleavage kobs at 640 uM GlcN6P” value is less than 1e-05 s⁻¹. The “self-cleavage kobs at 2500 uM GlcN6P” value with glucosamine-6-phosphate [3] was less than 1e-05 s⁻¹. Besides, the “self-cleavage kobs at 10000 uM GlcN6P” value with glucosamine-6-phosphate [4] was less than 1e-05 s⁻¹.
As for U47G G63U, in the data set with glucosamine-6-phosphate [1], the “self-cleavage kobs at 40 uM GlcN6P” value was less than 1e-05 s⁻¹. Also, the “self-cleavage kobs at 160 uM GlcN6P” value in the data set with glucosamine-6-phosphate [5] was less than 1e-05 s⁻¹. The “self-cleavage kobs at 640 uM GlcN6P” value with glucosamine-6-phosphate [2] is less than 1e-05 s⁻¹. In addition, in the data set with glucosamine-6-phosphate [3], the “self-cleavage kobs at 2500 uM GlcN6P” value is less than 1e-05 s⁻¹. Besides, in the data set with glucosamine-6-phosphate [4], the “self-cleavage kobs at 10000 uM GlcN6P” value was less than 1e-05 s⁻¹.
U31G G38C: the “self-cleavage kobs at 40 uM GlcN6P” value with glucosamine-6-phosphate [1] was less than 1e-05 s⁻¹. In the data set with glucosamine-6-phosphate [5], the “self-cleavage kobs at 160 uM GlcN6P” value is less than 1e-05 s⁻¹. Besides, the “self-cleavage kobs at 640 uM GlcN6P” value with glucosamine-6-phosphate [2] was less than 1e-05 s⁻¹. In the data set with glucosamine-6-phosphate [3], the “self-cleavage kobs at 2500 uM GlcN6P” value was less than 1e-05 s⁻¹.
For the variant C34U A36C C58A, the “self-cleavage kobs at 40 uM GlcN6P” value in the data set with glucosamine-6-phosphate [1] is less than 1e-05 s⁻¹.
